{"source": "patent US20190022259A1", "about": "“Use of 99mTc-tilmanocept and related molecular constructs for identifying and diagnosing malignant tumors and for monitoring therapeutic anti-tumor interventions” (Navidea Biopharmaceuticals, Inc., priority 2017, published 2019)", "key": {"[1]": {"conditions": "human, in vivo", "experimental": "A safety follow-up was conducted between 2 to 8 days after the injection."}, "[2]": {"conditions": "rat, in vivo, iv; cited from earlier work"}, "[3]": {"system": "TAMs around liver metastases (CD206+ macrophages)", "assay": "SPECT/CT imaging of colorectal cancer patients with synchronous liver metastasis after intravenous injection", "format": "in vivo, human", "conditions": "imaging 4-6 hours after injection"}}, "note": "Entries after “also recorded” stand apart in the source; their conditions may differ."}
{"substance": "(99m)Tc-diethylenetriaminepentaacetic acid (DTPA)-mannosyl-dextran [^99mTc tilmanocept]", "values": [{"measurement": "adverse drug reactions", "setting": "[1]", "value": "No adverse drug reactions were observed"}, {"measurement": "tolerability of IV injection", "setting": "[1]; iv", "value": "well-tolerated"}, {"measurement": "excretion", "setting": "[2]", "value": "excreted into the urine"}, {"measurement": "localization on SPECT/CT image", "setting": "[3]; first subject, 50 μg/2mCi i.v.", "value": "localization of ^99mTc tilmanocept in an area of larger metastasis than was observed with the FDG PET/CT; also recorded: suggests the presence of TAMs around the metastasis"}, {"measurement": "localization on SPECT/CT image", "setting": "[3]; second subject, 200 μg/2mCi i.v.", "value": "Localization around the metastasis was noted"}]}
